This data set addresses T1, PoxCxrA17-150 (Penicillium oxalicum HP7-1) (UniProt A0A2H4WV05).
T1 sequence: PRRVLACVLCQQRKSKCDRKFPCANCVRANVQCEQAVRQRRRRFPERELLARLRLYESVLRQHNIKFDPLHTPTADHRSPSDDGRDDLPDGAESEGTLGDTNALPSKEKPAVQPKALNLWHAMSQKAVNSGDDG
In words: EMSA. As to conditions: 20 mM Tris-HCl pH 8.0, 50 mM KCl, 5% glycerol, 1 mM DTT, 0.1 mg/mL BSA; 40 ng FAM probe, 0-4.8 ug protein; 4% PAGE in TAE; temperature not stated.

For “GTGAAAGAGGTGCTTGTCGTGATCGCTTGCCATATGTTTCACTGTATGACTTGGGCACCGGAGCGGCACCGTGAATCAGGCTGGCCAAATCCATTGTCGGACTAGATGCTTCGTCCGTTGGGATCGTTGAATTGTGCGGAATCAGTGTCGTCGAGTGATACAATTGGGACGTGAGATTTAGTCACGACCGATAAGGTG (double strand) [PoxCxrB promoter (CxrA probe)]”, the binding entry was “binds”.

With “CGGCTTCCAAAGACCCCATATCGACGATCGGCGATTTGGGGAGGGACTAAAGTAGGAGGGAGAGGGAGGGAGCAGAGAGGGAGGGAGCAGAGAGAGAGGGAGAGAGGGAGAGCAAGGGTGAATAACAAGAAAGCGACGATGACAAGGTTGGTAAGATAAC (double strand) [PoxNsdD promoter (CxrA probe)]”, the binding result is recorded as “binds”.

Take “TTAGGAGTGCTATAAGATGGCGACAGAAGTCGGCCGAGGAGGAAATTCTCGTTTCCATCCACCGAGTCTGCATACATTGGATTTCGAGTTGTCAAAATGAGATACGATTTGATTCTTGCCGCCGGCGCCACTCTGGCACTGGCCGTGCCCCAGGGCATCTCCAAGCGGGCCGGAGGCTTTGTCTGTAAGTTG (double strand) [POX01166/Cel5B promoter (CxrA probe)]”: the binding result is “binds”.
